According to patent US20090011988A1 (Genentech, published 2009):
Positions of bridges follow the written chain, without caps; N, C: chain ends. No end group written: not given here.

B1: 23B3.6 (peptide)
peptide displayed on M13 phage as a fusion to g8p: EVLLCSDGPQLYLCELYA
modifications: not fully specified (bridges); cysteine pairing not given here; also: displayed on phage coat protein g8
notes: whole phage particle in the assay; also called peptide-phage clone 23B3.6 (g8 display)
B2: 23B3.7 (peptide)
peptide displayed on M13 phage as a fusion to g8p: GDVECIEGPWGELCVWAD
modifications: not fully specified (bridges); cysteine pairing not given here; also: displayed on phage coat protein g8
notes: whole phage particle in the assay; also called peptide-phage clone 23B3.7 (g8 display)
B3: 23D3.1 (peptide)
peptide displayed on M13 phage as a fusion to g8p: FGGWSCQPTWVDVYVCNFEE
modifications: not fully specified (bridges); cysteine pairing not given here; also: displayed on phage coat protein g8
notes: whole phage particle in the assay; also called peptide-phage clone 23D3.1 (g8 display)
B4: 23D3.2 (peptide)
peptide displayed on M13 phage as a fusion to g8p: AMWVCVSDWETVEECIQYMY
modifications: not fully specified (bridges); cysteine pairing not given here; also: displayed on phage coat protein g8
notes: whole phage particle in the assay; also called peptide-phage clone 23D3.2 (g8 display)
B5: 23D3.3 (peptide)
peptide displayed on M13 phage as a fusion to g8p: AMWVCVSDWETVEECIQYMY
modifications: not fully specified (bridges); cysteine pairing not given here; also: displayed on phage coat protein g8
notes: whole phage particle in the assay; also called peptide-phage clone 23D3.3 (g8 display)
B6: 23D3.4 (peptide)
peptide displayed on M13 phage as a fusion to g8p: AMWVCVSDWETVEECIQYMY
modifications: not fully specified (bridges); cysteine pairing not given here; also: displayed on phage coat protein g8
notes: whole phage particle in the assay; also called peptide-phage clone 23D3.4 (g8 display)
B7: 23D3.5 (peptide)
peptide displayed on M13 phage as a fusion to g8p: AMWVCVSDWETVEECIQYMY
modifications: not fully specified (bridges); cysteine pairing not given here; also: displayed on phage as g8p fusion
notes: whole phage particle in the assay; also called peptide-phage clone 23D3.5 (g8 display)
B8: 23D3.6 (peptide)
peptide displayed on M13 phage as a fusion to g8p: TNWFFVCESGHQDICWLAEE
modifications: not fully specified (bridges); cysteine pairing not given here; also: displayed on phage as g8p fusion
notes: whole phage particle in the assay; also called peptide-phage clone 23D3.6 (g8 display)
B9: BP-23 (peptide)
peptide: ELDGWVCIKVGEQNLCYLAEG-NH2
modifications: disulfide 7-16; N-terminus assumed
SMILES: CC[C@H](C)[C@@H]1NC(=O)[C@@H](NC(=O)[C@@H](NC(=O)[C@H](Cc2c[nH]c3ccccc23)NC(=O)CNC(=O)[C@H](CC(=O)O)NC(=O)[C@H](CC(C)C)NC(=O)[C@@H](N)CCC(=O)O)C(C)C)CSSC[C@@H](C(=O)N[C@@H](Cc2ccc(O)cc2)C(=O)N[C@@H](CC(C)C)C(=O)N[C@@H](C)C(=O)N[C@@H](CCC(=O)O)C(=O)NCC(N)=O)NC(=O)[C@H](CC(C)C)NC(=O)[C@H](CC(N)=O)NC(=O)[C@H](CCC(N)=O)NC(=O)[C@H](CCC(=O)O)NC(=O)CNC(=O)[C@H](C(C)C)NC(=O)[C@H](CCCCN)NC1=O
notes: also called peptide of phage clone 4C3.2
B10: BP-24 (peptide)
peptide: WFKTVCYEWEDEVQCYTLEEG-NH2
modifications: disulfide 6-15; N-terminus assumed
SMILES: CC(C)C[C@H](NC(=O)[C@@H](NC(=O)[C@H](Cc1ccc(O)cc1)NC(=O)[C@@H]1CSSC[C@H](NC(=O)[C@@H](NC(=O)[C@@H](NC(=O)[C@H](CCCCN)NC(=O)[C@H](Cc2ccccc2)NC(=O)[C@@H](N)Cc2c[nH]c3ccccc23)[C@@H](C)O)C(C)C)C(=O)N[C@@H](Cc2ccc(O)cc2)C(=O)N[C@@H](CCC(=O)O)C(=O)N[C@@H](Cc2c[nH]c3ccccc23)C(=O)N[C@@H](CCC(=O)O)C(=O)N[C@@H](CC(=O)O)C(=O)N[C@@H](CCC(=O)O)C(=O)N[C@@H](C(C)C)C(=O)N[C@@H](CCC(N)=O)C(=O)N1)[C@@H](C)O)C(=O)N[C@@H](CCC(=O)O)C(=O)N[C@@H](CCC(=O)O)C(=O)NCC(N)=O
notes: also called peptide of phage clone 4D3.5
B11: BP3-40 (peptide)
peptide: Ac-SEEVCWPVAEWYLCN-NH2
modifications: disulfide 5-14
SMILES: CC(=O)N[C@@H](CO)C(=O)N[C@@H](CCC(=O)O)C(=O)N[C@@H](CCC(=O)O)C(=O)N[C@H](C(=O)N[C@H]1CSSC[C@@H](C(=O)N[C@@H](CC(N)=O)C(N)=O)NC(=O)[C@H](CC(C)C)NC(=O)[C@H](Cc2ccc(O)cc2)NC(=O)[C@H](Cc2c[nH]c3ccccc23)NC(=O)[C@H](CCC(=O)O)NC(=O)[C@H](C)NC(=O)[C@H](C(C)C)NC(=O)[C@@H]2CCCN2C(=O)[C@H](Cc2c[nH]c3ccccc23)NC1=O)C(C)C
B12: BP3-39 (peptide)
peptide: SEEVCWPVAEWYLCN-NH2
modifications: disulfide 5-14; N-terminus assumed
SMILES: CC(C)C[C@@H]1NC(=O)[C@H](Cc2ccc(O)cc2)NC(=O)[C@H](Cc2c[nH]c3ccccc23)NC(=O)[C@H](CCC(=O)O)NC(=O)[C@H](C)NC(=O)[C@H](C(C)C)NC(=O)[C@@H]2CCCN2C(=O)[C@H](Cc2c[nH]c3ccccc23)NC(=O)[C@@H](NC(=O)[C@@H](NC(=O)[C@H](CCC(=O)O)NC(=O)[C@H](CCC(=O)O)NC(=O)[C@@H](N)CO)C(C)C)CSSC[C@@H](C(=O)N[C@@H](CC(N)=O)C(N)=O)NC1=O

Legend:
[1] = biological target: T1, recombinant human IGFBP-3 (human, UniProt P17936 28-291); assay: phage ELISA (IGF-blocking phage assay): g8 peptide-phage on an IGFBP-3-coated plate, without and with IGF-1; OD492
Method: The plates were then washed ten times, as above, and a solution of rabbit anti-phage antibody mixed with a goat-anti-rabbit conjugate of horseradish peroxidase was added. After an incubation of 1 hour at room temperature, the plates were developed with a chromogenic substrate, o-phenylenediamine (Sigma). The reaction was stopped with addition of ½ volume of 2.5 M H₂SO₄. Optical density at 490 nm was measured on a spectrophotometric plate reader.
In each case, the phagemid clone was grown from a single colony overnight at 37° C. in a culture volume of 5 ml. The phage particles were prepared as described above.

[2] = biological target: T1, recombinant human IGFBP-3; assay: BIAcore competition, IGFBP-3 to immobilized IGF-1
Method: IGF-1 was immobilized on a dextran chip for inhibition assays using a BIACORE™ 2000 surface-plasmon-resonance device (BIAcore, Inc., Piscataway, N.J.) to measure free binding protein. IGF-1 was biotinylated as described above, and injected over a chip to which streptavidin had been coupled (BIAcore, Inc.) to give 400 to 800 RU (response units) of immobilized IGF-1. […] After incubation for >1 hour at room temperature, an aliquot of 20:L was injected at a flow rate of 20:L/min over the IGF-1 chip. […]

[3] = biological target: T1, recombinant human IGFBP-3; assay: BIAcore competition, IGFBP-3 to IGF-1
Method: IGF-1 was immobilized on a dextran chip for inhibition assays using a BIACORE™ 2000 surface-plasmon-resonance device (BIAcore, Inc., Piscataway, N.J.) to measure free binding protein. IGF-1 was biotinylated as described above, and injected over a chip to which streptavidin had been coupled (BIAcore, Inc.) to give 400 to 800 RU (response units) of immobilized IGF-1. […] After incubation for >1 hour at room temperature, an aliquot of 20:L was injected at a flow rate of 20:L/min over the IGF-1 chip.

T1 sequence (P17936 28-291 limits assumed): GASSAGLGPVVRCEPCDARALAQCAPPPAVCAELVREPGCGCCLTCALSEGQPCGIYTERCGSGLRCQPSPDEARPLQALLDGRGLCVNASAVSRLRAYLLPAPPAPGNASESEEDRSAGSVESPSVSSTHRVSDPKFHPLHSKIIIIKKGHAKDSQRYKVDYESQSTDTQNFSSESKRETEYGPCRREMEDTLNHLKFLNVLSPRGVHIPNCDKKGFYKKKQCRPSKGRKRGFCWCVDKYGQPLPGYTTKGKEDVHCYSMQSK

Binder	binding result [1]	IC50 [2] [µM]	also measured
B1	binds	–	–
B2	binds	–	–
B3	binds	–	–
B4	binds	–	–
B5	binds	–	–
B6	binds	–	–
B7	binds	–	–
B8	binds	–	–
B9	–	220	–
B10	–	100 to 300	–
VAWEVCWDRHDQGYICTTDS (disulfide 6-16) [BP3-4D3.11]	–	< 10	–
AWEVCWDRHQGYICTTDS (disulfide 5-14) [BP3-4D3.11DEL]	–	80	–
EESECFEGPGYVICGLVG (disulfide 5-14) [BP3-4B3.3]	–	80	–
DMGVCADGPWMYVCEWTE (disulfide 5-14) [BP3-02-ox]	–	12	–
VCWPVAEWYLCNMWG (disulfide 2-11) [BP3-16]	–	30	–
TGVDCQCGPVHCVCMDWA (disulfide 7-12; disulfide 5-14 (inferred)) [BP3-06]	–	5	–
TVANCDCYMPLCLCYDSD (disulfide 7-12; disulfide 5-14 (inferred)) [BP3-08]	–	15	–
ASEEVCWPVAEWYLCNMWGR (disulfide 6-15) [4D3.3P]	–	–	IC50 [3]: 5.6 µM
ASEEVCWPVAEWYLCN (disulfide 6-15) [BP3-30]	–	–	IC50 [3]: 5.6 µM
GPETCWPVAEWYLCN (disulfide 5-14) [BP3-41]	–	–	IC50 [3]: 4 µM
B11	–	–	IC50 [3]: 0.66 µM
B12	–	–	IC50 [3]: 0.66 µM
EEVCWPVAEWYLCN (disulfide 4-13) [BP3-28]	–	–	IC50 [3]: 5.4 µM
